Earlier results on one substance are cited in publication PMC9558565.

What is called Kd is the concentration at which binding is half-saturated.

The data set addresses p53p (Homo sapiens) (UniProt P04637).

Sequence of p53p (Homo sapiens) (P04637 whole entry): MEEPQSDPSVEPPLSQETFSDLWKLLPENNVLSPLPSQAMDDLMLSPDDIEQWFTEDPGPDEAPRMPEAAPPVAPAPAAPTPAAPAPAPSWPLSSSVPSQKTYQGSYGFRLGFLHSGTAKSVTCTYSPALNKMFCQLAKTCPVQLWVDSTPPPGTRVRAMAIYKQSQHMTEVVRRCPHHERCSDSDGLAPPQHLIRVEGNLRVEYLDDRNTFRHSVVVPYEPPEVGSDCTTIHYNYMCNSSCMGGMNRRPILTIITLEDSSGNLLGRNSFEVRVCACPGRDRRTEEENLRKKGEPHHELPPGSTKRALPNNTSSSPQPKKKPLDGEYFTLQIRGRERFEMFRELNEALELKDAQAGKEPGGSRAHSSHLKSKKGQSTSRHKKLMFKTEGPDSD
Sequence of MDM2 (Q00987 whole entry): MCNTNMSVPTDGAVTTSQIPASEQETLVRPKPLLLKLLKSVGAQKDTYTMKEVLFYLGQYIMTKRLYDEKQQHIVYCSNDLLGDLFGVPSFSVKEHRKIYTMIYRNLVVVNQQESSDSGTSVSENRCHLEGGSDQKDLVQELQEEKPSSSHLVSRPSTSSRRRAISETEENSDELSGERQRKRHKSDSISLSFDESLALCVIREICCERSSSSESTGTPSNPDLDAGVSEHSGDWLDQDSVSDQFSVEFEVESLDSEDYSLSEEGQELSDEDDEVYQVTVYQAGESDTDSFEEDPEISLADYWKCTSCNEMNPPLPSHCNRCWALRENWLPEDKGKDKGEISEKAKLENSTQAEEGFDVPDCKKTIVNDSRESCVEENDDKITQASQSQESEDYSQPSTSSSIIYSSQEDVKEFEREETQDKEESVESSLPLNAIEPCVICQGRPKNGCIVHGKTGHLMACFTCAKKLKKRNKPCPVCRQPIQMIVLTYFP

As for MDM2 (from UniProt Q00987), the Kd was 0.046 µM.
